Test results published in the supplement of paper PMC9428881.
± gives the standard error.

Experiment: background-corrected fluorescence of 3'-dye-labeled ssDNA relative to brightest sequence (3'-GCGCG) (fraction); higher = brighter dye fluorescence (less quenching)
Procedure, shortened: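 Each of 1024 permuted pentamers was synthesized as single-stranded DNA on glass slides by light-directed phosphoramidite chemistry, with a 3' Cy3 or Cy5 dye alongside. Arrays were scanned at 532 or 635 nm before and after overnight deprotection with ethylenediamine/ethanol. Values average 10 features per array across at least 3 syntheses. The fluorescence readout, with unlabeled-oligo background removed, is given relative to the brightest sequence.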

Which background-corrected fluorescence (dye: Cy3 (3' terminal)) does the source give for “TTTTTTCATGCTCATGATGATTTTTTTTTTTTTTTGAGCC [CCGAG]” here?
Its background-corrected fluorescence is 0.425 ± 0.012.

And the background-corrected fluorescence (dye: Cy5 (3' terminal))?
The background-corrected fluorescence was 0.312 ± 0.029.

Which results are given for “TTTTTGCATGCTGATGATGATTTTTTTTTTTTTTTTACCC [CCCAT]”?
background-corrected fluorescence (dye: Cy3 (3' terminal)): 0.408 ± 0.012; background-corrected fluorescence (dye: Cy5 (3' terminal)): 0.276 ± 0.019

Which background-corrected fluorescence (dye: Cy3 (3' terminal)) does the source give for “TTTTTTCATCATGCTCATGCTTTTTTTTTTTTTTTGGAGA [AGAGG]” here?
The background-corrected fluorescence was 0.726 ± 0.026.

What about the background-corrected fluorescence (dye: Cy5 (3' terminal)) of the same sequence?
The background-corrected fluorescence was 0.594 ± 0.04.

With “TTTTTTGCTCATCATGATCATTTTTTTTTTTTTTTAGGCG [GCGGA]” as the sequence, how does the background-corrected fluorescence (dye: Cy3 (3' terminal)) read?
Its background-corrected fluorescence is 0.633 ± 0.026.

And the background-corrected fluorescence (dye: Cy5 (3' terminal))?
The background-corrected fluorescence was 0.521 ± 0.049.

Which results are given for “TTTTTTGCTGAGCATGCGCATTTTTTTTTTTTTTTACTAT [TATCA]”?
background-corrected fluorescence (dye: Cy3 (3' terminal)): 0.531 ± 0.012; background-corrected fluorescence (dye: Cy5 (3' terminal)): 0.392 ± 0.021

Which results are given for “TTTTTGCATGCTGATCATGCTTTTTTTTTTTTTTTTACGA [AGCAT]”?
background-corrected fluorescence (dye: Cy3 (3' terminal)): 0.627 ± 0.026; background-corrected fluorescence (dye: Cy5 (3' terminal)): 0.491 ± 0.031
